This data set concerns the molecule itself. In words: SEC-MALS; samples at 1 mg/ml, Superdex 200 Increase 10/300, 20 mM Tris-HCl, 150 mM NaCl, 0.5 mM TCEP, pH 8.0; run in triplicates.

Positions count from the first letter of the chain named. Names and notes keep the numbering of the source.

B1: ΔN-TLK2, unphosphorylated (N-terminal deletion, with coiled-coil region, kinase domain and C-tail) (domain or fragment, human, UniProt Q86UE8 191-772, looked up)
chain: TEHSCSSQKQISIQHRQTQSDLTIEKISALENSKNSDLEKKEGRIDDLLRANCDLRRQIDEQQKMLEKYKERLNRCVTMSKKLLIEKSKQEKMACRDKSMQDRLRLGHFTTVRHGASFTEQWTDGYAFQNLIKQQERINSQREEIERQRKMLAKRKPPAMGQAPPATNEQKQRKSKTNGAENETPSSGNTELKDTAPALGAHSLLRLTLAEYHEQEEIFKLRLGHLKKEEAEIQAELERLERVRNLHIRELKRIHNEDNSQFKDHPTLNDRYLLLHLLGRGGFSEVYKAFDLTEQRYVAVKIHQLNKNWRDEKKENYHKHACREYRIHKELDHPRIVKLYDYFSLDTDSFCTVLEYCEGNDLDFYLKQHKLMSEKEARSIIMQIVNALKYLNEIKPPIIHYDLKPGNILLVNGTACGEIKITDFGLSKIMDDDSYNSVDGMELTSQGAGTYWYLPPECFVVGKEPPKISNKVDVWSVGVIFYQCLYGRKPFGHNQSQQDILQENTILKATEVQFPPKPVVTPEAKAFIRRCLAYRKEDRIDVQQLACDPYLLPHIRKSVSTSSPAGAAIASTSGASNNSSSN
notes: Tousled-like kinase 2 (TLK2), human; lacks the 1-190 N-terminal fragment, holds the 191-450 region around the CC domains, the kinase domain and the C-tail; the text says once '1-191' and once '1-190' for the missing segment; also called TLK2L; source: E. coli NiCo21(DE3) or Rosetta (DE3) pLysS, co-expressed with lambda phosphatase, purified (Ni-NTA, monoQ, SEC)
Usually stoichiometry N stands for a count of units in the complex or per binding partner. For B1, the “stoichiometry N” value was found to be 2.

B2: ΔN-TLK2-KD, kinase-dead ΔN-TLK2 (D613A) (domain or fragment, human, UniProt Q86UE8 191-772, looked up)
chain: B1 chain with D423A
notes: Tousled-like kinase 2 (TLK2), human; ΔN-TLK2 (lacks the 1-190 N-terminal fragment) with the D613A mutation; also called ΔN-TLK-KD; kinase-dead homodimer; source: E. coli NiCo21(DE3) or Rosetta (DE3) pLysS, purified
As for B2, the binding result was “binds”.

B3: ΔN-TLK2-p, phosphorylated ΔN-TLK2 (domain or fragment, human, UniProt Q86UE8 191-772, looked up)
chain: B1 chain
modifications: autophosphorylated (not co-expressed with the lambda phosphatase); 41 phosphosites out of 67 possible Ser/Thr sites, mapped in Fig. 3c
notes: Tousled-like kinase 2 (TLK2), human; lacks the 1-190 N-terminal fragment, holds the CC region, the kinase domain and the C-tail; also called active homodimer (ΔN-TLK2); source: E. coli NiCo21(DE3) or Rosetta (DE3) pLysS, without lambda phosphatase, purified (Ni-NTA, monoQ, heparin, SEC)
For the protein B3, the binding result is “binds”.

These data come from article PMC6023931 (Nature Communications, 2018).
